Here are results for five proteins from PMC8268124, “Structure and Function of Piezophilic Hyperthermophilic Pyrococcus yayanosii pApase” (International Journal of Molecular Sciences, 2021).

The chains are these.
B1: PyapApase (Pyrococcus yayanosii CH1) (protein)
chain: MLALIIHHWDTDGITTAALLVRALELGDFKNMTPPIGEFRFDGKIWAAIERADKLYVLDLNLPQEVEKVPVETLFIDHHIQPRIKNPRVRQVNPALEGKHYPSASLVVSEHFGIFNAWSALGAVGDIGEKAFELSRVEELLKGEGLSREDALKLVELIDSNYIVMDRMAVEEALHVLLNYELRELLEYEPWIRRVEAIKEAVEEVMSSVEERNGFAIVDFESPFNIISKVARKLVWEKGYRGAVVVNRNFHGKAQVYFRVSPKEAERISVLTIIGKLRGLGVNAGGKREVIGCICERGKLDEVLSVIDAYLG
B2: PyapApase (Pyrococcus yayanosii CH1; R259A) (protein)
chain: B1 chain with R259A
B3: PyapApase (Pyrococcus yayanosii CH1; D12A) (protein)
chain: B1 chain with D12A
B4: PyapApase (Pyrococcus yayanosii CH1; K287A) (protein)
chain: B1 chain with K287A
B5: PyapApase (Pyrococcus yayanosii CH1; G285D) (protein)
chain: B1 chain with G285D

Where a chain is given by its changes, count along the chain named. Numbers in names are those of the source.

Substrate in this data set: Nc1ncnc2c1ncn2[C@@H]1O[C@H](COP(=O)(O)O)[C@@H](OP(=O)(O)O)[C@H]1O
The experiment in a line: HPLC of AMP product, initial rates, double reciprocal plot. Format: biochemical, Pyrococcus yayanosii. Conditions: 20 mM Tris-HCl pH 8.0, 50 mM NaCl, 1.0 mM MnCl2, 1.0 mM DTT, 100 µg/mL BSA, 70 °C. The source says:
HPLC of AMP product, initial rates, double reciprocal plot on PyapApase
Consider B1, for which the Km came out at 272 ± 12.6 µM. For the protein B2, the Km turned out to be 6000 ± 753.4 µM. Consider B3, for which the Km turned out to be 790 ± 47.7 µM, the kcat worked out at 1.7 ± 0.3 s⁻¹ and the kcat/Km is 2160 M⁻¹ s⁻¹. The corresponding values for B4 are 720 ± 33.1 µM, 17.10 ± 2.1 s⁻¹ and 23800 M⁻¹ s⁻¹. Turning to B5, the Km was determined as 4500 ± 607.7 µM.

The term Km denotes the concentration of substrate that gives half-maximal velocity. The term kcat denotes the number of substrate molecules converted per active site and unit of time at saturation. The kcat/Km is the turnover number divided by the Michaelis constant.
